Measurements from PMC3256971 (The Journal of Experimental Medicine, 2011).

Legend:
[1] = test system: I-A^g7; details: ref Yu et al., 2000; Levisetti et al., 2007; cited from earlier work
[2] = test system: B16A-dKO mice; test: Immunization and IL-2 ELISPOT in B16A-dKO mice; format: in vivo, mouse; details: 10 nmol in CFA, restimulation at 10 µM, Fig. 4 c
[3] = test system: I-A^g7; details: ref Yu et al., 2000; Levisetti et al., 2007; cited from earlier work; remark: listed apart in the source
[4] = target: soluble I-A^g7 (mouse); test: radioligand binding
[5] = target: soluble I-A^g7 (mouse); test: SDS stability of the complex

SHLVEALYLVCGERG [B:9–23]
rate of dissociation from I-A^g7 [1]: fast rate of dissociation
IL-2 ELISPOT response to register 1 after immunization [2]: detected a response to register 1 similar to that found in NOD mice
binding affinity to I-A^g7 [3]: very low affinity

nested B:12–21 peptide with flanking residues
IC50 [4]: 500 nM

radioactive peptide bearing the nested register 1:12–20 sequence (added N-terminal tyrosine, B16 tyrosine to phenylalanine)
percent of the bound peptide lost in the first 20 min [4]: > 50%

radioactive peptide bearing the nested register 2:13–21 sequence (added N-terminal tyrosine, B16 tyrosine to phenylalanine)
percent SDS stable [5]: 70%

TEGEALYLVCGEGGS [nested register 2:13–21 peptide (insulin B:13–21 with flanking residues)]
IC50 [4]: 700 nM

TEGVEALYLVCGGGS [nested register 1:12–20 peptide (insulin B:12–20 with flanking residues)]
IC50 [4]: 1400 nM

TEGALYLVCGERGGS [nested register 3:14–22 peptide (insulin B:14–22 with flanking residues)]
IC50 [4]: 5500 nM
